Data on 94 variants can be found in the supplement of paper PMC10567573.

The labels stand for the following.
B1: TOR1AIP2 (parent)
chain: YKYCDHENAAFKDVALVLTVLLEE
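Further: lentivirally expressed fusions sorted by FACS into six bins by GFP to DsRed ratio, PSI derived from sequencing read proportions per bin multiplied by bin number.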

The variants in the series derive from B1. In words: protein stability index of a GFP-peptide fusion (GPS, HEK-293T) (PSI 1-6); higher = more stable. Particulars: c terminus: a fixed tail appended.
As for YKYCDHENAAAKDVALVLTVLLEE [F11A], the protein stability index stood at 2.73.
As for YKYCDHENAAIKDVALVLTVLLEE [F11I], the protein stability index is 1.07.
As for YKYCDHENAACKDVALVLTVLLEE [F11C], the protein stability index turned out to be 1.03.
The result for YKYCDHENAAYKDVALVLTVLLEE [F11Y] reads 2.67; that for YKYCDHENAAHKDVALVLTVLLEE [F11H], 2.44; that for YKYCDHENAANKDVALVLTVLLEE [F11N], 1.38.
On to YKYCDHENAATKDVALVLTVLLEE [F11T], for which the protein stability index is 1.49.
The figure for YKYCDHENAAGKDVALVLTVLLEE [F11G] is 3.68; for YKYCDHENAAQKDVALVLTVLLEE [F11Q] it is 2.6.
Regarding YKYCDHENAASKDVALVLTVLLEE [F11S], the protein stability index stood at 2.04.
Take YKYCDHENAAKKDVALVLTVLLEE [F11K]: the protein stability index turned out to be 1.2.
Turning to YKSCDHENAAFKDVALVLTVLLEE [Y3S], the protein stability index came out at 2.41.
On to YKDCDHENAAFKDVALVLTVLLEE [Y3D], for which the protein stability index came to 2.78.
The figure for YKACDHENAAFKDVALVLTVLLEE [Y3A] is 3.02; for YKVCDHENAAFKDVALVLTVLLEE [Y3V] it is 1.83; for YKPCDHENAAFKDVALVLTVLLEE [Y3P] it is 3.07.
For the variant YKLCDHENAAFKDVALVLTVLLEE [Y3L], the protein stability index came out at 2.89.
The figure for YKCCDHENAAFKDVALVLTVLLEE [Y3C] is 1.51.
The figure for YKYCDHINAAFKDVALVLTVLLEE [E7I] is 3.39; for YKYCDHPNAAFKDVALVLTVLLEE [E7P] it is 3.94; for YKYCDHQNAAFKDVALVLTVLLEE [E7Q] it is 2.52.
The figure for YKYCDHNNAAFKDVALVLTVLLEE [E7N] is 3.84; for YKYCDHSNAAFKDVALVLTVLLEE [E7S] it is 2.31.
Turning to YKYCDHRNAAFKDVALVLTVLLEE [E7R], the protein stability index came to 2.5.
The result for YKYCDHLNAAFKDVALVLTVLLEE [E7L] reads 2.71.
With YKYCDHCNAAFKDVALVLTVLLEE [E7C], the protein stability index was found to be 4.53.
As for YKYCYHENAAFKDVALVLTVLLEE [D5Y], the protein stability index amounted to 2.4.
Take YKYCRHENAAFKDVALVLTVLLEE [D5R]: the protein stability index amounted to 3.8.
Regarding YKYCPHENAAFKDVALVLTVLLEE [D5P], the protein stability index amounted to 3.2.
The result for YKYCLHENAAFKDVALVLTVLLEE [D5L] reads 2.43; that for YKYCNHENAAFKDVALVLTVLLEE [D5N], 2.94.
The figure for YKYCSHENAAFKDVALVLTVLLEE [D5S] is 2.61.
Regarding YKYCEHENAAFKDVALVLTVLLEE [D5E], the protein stability index is 3.08.
For the variant TKYCDHENAAFKDVALVLTVLLEE [Y1T], the protein stability index stood at 2.48.
As to NKYCDHENAAFKDVALVLTVLLEE [Y1N], the protein stability index is 2.13.
The result for HKYCDHENAAFKDVALVLTVLLEE [Y1H] reads 1.04; that for PKYCDHENAAFKDVALVLTVLLEE [Y1P], 1.71.
The result for LKYCDHENAAFKDVALVLTVLLEE [Y1L] reads 2.17; that for DKYCDHENAAFKDVALVLTVLLEE [Y1D], 1.03.
Turning to KKYCDHENAAFKDVALVLTVLLEE [Y1K], the protein stability index came out at 2.68.
The figure for RKYCDHENAAFKDVALVLTVLLEE [Y1R] is 2.28; for YLYCDHENAAFKDVALVLTVLLEE [K2L] it is 2.81.
In the case of YMYCDHENAAFKDVALVLTVLLEE [K2M], the protein stability index was 1.96.
The result for YYYCDHENAAFKDVALVLTVLLEE [K2Y] reads 2.95.
With YSYCDHENAAFKDVALVLTVLLEE [K2S], the protein stability index stood at 2.14.
Regarding YDYCDHENAAFKDVALVLTVLLEE [K2D], the protein stability index came out at 2.03.
The figure for YWYCDHENAAFKDVALVLTVLLEE [K2W] is 1.98; for YNYCDHENAAFKDVALVLTVLLEE [K2N] it is 1.99.
Regarding YKYCDHESAAFKDVALVLTVLLEE [N8S], the protein stability index was 2.9.
On to YKYCDHERAAFKDVALVLTVLLEE [N8R], for which the protein stability index amounted to 4.51.
The result for YKYCDHEYAAFKDVALVLTVLLEE [N8Y] reads 2.07; that for YKYCDHEMAAFKDVALVLTVLLEE [N8M], 3.45; that for YKYCDHEEAAFKDVALVLTVLLEE [N8E], 1.56.
The figure for YKYCDHEQAAFKDVALVLTVLLEE [N8Q] is 2.7.
With YKYCDHEVAAFKDVALVLTVLLEE [N8V], the protein stability index was determined as 1.81.
In the case of YKYCDHENAAFDDVALVLTVLLEE [K12D], the protein stability index was found to be 1.81.
Regarding YKYCDHENAAFYDVALVLTVLLEE [K12Y], the protein stability index is 2.97.
The result for YKYCDHENAAFCDVALVLTVLLEE [K12C] reads 4.02; that for YKYCDHENAAFQDVALVLTVLLEE [K12Q], 3.33; that for YKYCDHENAAFADVALVLTVLLEE [K12A], 3.1.
Take YKYCDHENAAFKTVALVLTVLLEE [D13T]: the protein stability index was found to be 2.09.
The result for YKYCDHENAAFKCVALVLTVLLEE [D13C] reads 2.1; that for YKYCDHENAAFKFVALVLTVLLEE [D13F], 2.83.
The figure for YKYCDHENAAFKLVALVLTVLLEE [D13L] is 3.1; for YKYCDHENAAFKQVALVLTVLLEE [D13Q] it is 2.66; for YKYCDHENAAFKSVALVLTVLLEE [D13S] it is 2.91.
The result for YKYCDHENAAFKGVALVLTVLLEE [D13G] reads 1.75; that for YKYCDHENAAFKEVALVLTVLLEE [D13E], 2.46.
In the case of YKYCDIENAAFKDVALVLTVLLEE [H6I], the protein stability index is 1.05.
The result for YKYCDPENAAFKDVALVLTVLLEE [H6P] reads 2; that for YKYCDVENAAFKDVALVLTVLLEE [H6V], 2.57.
The result for YKYCDGENAAFKDVALVLTVLLEE [H6G] reads 2.26; that for YKYCDLENAAFKDVALVLTVLLEE [H6L], 2.49; that for YKYCDCENAAFKDVALVLTVLLEE [H6C], 2.09.
In the case of YKYCDQENAAFKDVALVLTVLLEE [H6Q], the protein stability index came out at 3.06.
The figure for YKYGDHENAAFKDVALVLTVLLEE [C4G] is 1.35; for YKYDDHENAAFKDVALVLTVLLEE [C4D] it is 1.05.
The result for YKYCDHENAWFKDVALVLTVLLEE [A10W] reads 3.86.
As to YKYCDHENAYFKDVALVLTVLLEE [A10Y], the protein stability index turned out to be 3.38.
For YKYCDHENAGFKDVALVLTVLLEE [A10G], the protein stability index was 2.42.
The figure for YKYCDHENARFKDVALVLTVLLEE [A10R] is 1.01; for YKYCDHENALFKDVALVLTVLLEE [A10L] it is 2.83; for YKYCDHENAIFKDVALVLTVLLEE [A10I] it is 2.35.
In the case of YKYCDHENAKFKDVALVLTVLLEE [A10K], the protein stability index was 3.02.
The figure for YKYCDHENAPFKDVALVLTVLLEE [A10P] is 1.16; for YKYCDHENASFKDVALVLTVLLEE [A10S] it is 1.98.
With YKYCDHENAMFKDVALVLTVLLEE [A10M], the protein stability index is 1.93.
The result for YKYCDHENQAFKDVALVLTVLLEE [A9Q] reads 3.72; that for YKYCDHENCAFKDVALVLTVLLEE [A9C], 4.55; that for YKYCDHENDAFKDVALVLTVLLEE [A9D], 1.4.
The figure for YKYCDHENWAFKDVALVLTVLLEE [A9W] is 3.05; for YKYCDHENIAFKDVALVLTVLLEE [A9I] it is 3.88; for YKYCDHENNAFKDVALVLTVLLEE [A9N] it is 3.72.
Take YKYCDHENEAFKDVALVLTVLLEE [A9E]: the protein stability index turned out to be 1.75.
